The target in the assay is Full-length rat neuronal nitric oxide synthase (nNOS) (rat) (UniProt P29476).
Full-length rat neuronal nitric oxide synthase (nNOS) (rat), sequence (P29476 whole entry): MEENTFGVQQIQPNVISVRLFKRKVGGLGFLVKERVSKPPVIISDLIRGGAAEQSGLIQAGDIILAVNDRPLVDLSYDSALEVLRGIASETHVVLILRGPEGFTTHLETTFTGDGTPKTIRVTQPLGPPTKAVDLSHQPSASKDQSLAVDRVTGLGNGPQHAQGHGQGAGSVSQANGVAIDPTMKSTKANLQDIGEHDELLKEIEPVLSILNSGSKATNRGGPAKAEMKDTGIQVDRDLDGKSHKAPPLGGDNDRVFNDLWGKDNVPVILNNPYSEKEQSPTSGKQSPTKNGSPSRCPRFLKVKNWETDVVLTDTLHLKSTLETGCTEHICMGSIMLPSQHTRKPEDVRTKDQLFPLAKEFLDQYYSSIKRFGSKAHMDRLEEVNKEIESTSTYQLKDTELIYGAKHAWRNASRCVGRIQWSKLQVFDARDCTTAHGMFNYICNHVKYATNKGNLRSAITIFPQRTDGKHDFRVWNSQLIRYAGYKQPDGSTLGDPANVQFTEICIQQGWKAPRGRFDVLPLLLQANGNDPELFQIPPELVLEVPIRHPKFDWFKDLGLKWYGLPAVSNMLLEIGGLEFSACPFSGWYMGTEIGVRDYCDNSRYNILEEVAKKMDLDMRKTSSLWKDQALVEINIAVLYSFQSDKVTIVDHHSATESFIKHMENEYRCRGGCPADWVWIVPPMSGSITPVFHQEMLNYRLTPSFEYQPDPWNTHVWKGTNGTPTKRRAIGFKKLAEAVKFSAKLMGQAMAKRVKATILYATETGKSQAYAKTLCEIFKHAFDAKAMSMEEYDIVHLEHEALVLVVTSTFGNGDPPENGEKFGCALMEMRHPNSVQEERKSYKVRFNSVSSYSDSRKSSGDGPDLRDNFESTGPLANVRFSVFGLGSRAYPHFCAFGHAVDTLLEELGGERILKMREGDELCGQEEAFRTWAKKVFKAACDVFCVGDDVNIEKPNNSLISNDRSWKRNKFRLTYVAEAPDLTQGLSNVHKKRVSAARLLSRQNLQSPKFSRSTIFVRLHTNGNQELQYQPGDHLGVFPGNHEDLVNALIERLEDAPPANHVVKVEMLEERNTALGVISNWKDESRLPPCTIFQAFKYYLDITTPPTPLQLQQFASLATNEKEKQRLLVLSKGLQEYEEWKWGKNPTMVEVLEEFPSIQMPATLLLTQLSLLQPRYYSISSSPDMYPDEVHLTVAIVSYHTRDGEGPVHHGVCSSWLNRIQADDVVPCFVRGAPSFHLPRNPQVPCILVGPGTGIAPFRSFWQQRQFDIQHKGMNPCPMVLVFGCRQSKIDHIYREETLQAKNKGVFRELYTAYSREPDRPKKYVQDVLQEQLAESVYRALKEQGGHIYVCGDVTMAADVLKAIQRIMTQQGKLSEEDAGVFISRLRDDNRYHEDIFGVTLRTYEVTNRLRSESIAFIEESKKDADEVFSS

“Human calmodulin (CaM), N-terminal His6-TEV tag removed (from UniProt P0DP23 1-149) (natural protein)” yielded a nNOS activity (NO synthesis, oxyhemoglobin assay) of 2.0 μM nNOS against increasing CaM concentration; CaM concentration at maximal activation of 2.4 µM.

For the origin of these results see article PMC10716779.
